The target in assay [1] is human KLB & human FGFR4 on L6 cells (human, UniProt Q86Z14 1-1044; P22455 22-802). Put plainly: cell-based or functional assay.
The target of assay [2] is human KLB & human FGFR3c on L6 cells (human, UniProt Q86Z14 1-1044; P22607 23-806). Briefly: cell-based or functional assay.
Assay [3] has as its target T1, hKLB (R&D, Cat. # 5889-KB) (human, UniProt Q86Z14 53-997, limits assumed).
T1 construct: bought soluble protein; also called KLB protein; human KLB
T1 sequence (looked up): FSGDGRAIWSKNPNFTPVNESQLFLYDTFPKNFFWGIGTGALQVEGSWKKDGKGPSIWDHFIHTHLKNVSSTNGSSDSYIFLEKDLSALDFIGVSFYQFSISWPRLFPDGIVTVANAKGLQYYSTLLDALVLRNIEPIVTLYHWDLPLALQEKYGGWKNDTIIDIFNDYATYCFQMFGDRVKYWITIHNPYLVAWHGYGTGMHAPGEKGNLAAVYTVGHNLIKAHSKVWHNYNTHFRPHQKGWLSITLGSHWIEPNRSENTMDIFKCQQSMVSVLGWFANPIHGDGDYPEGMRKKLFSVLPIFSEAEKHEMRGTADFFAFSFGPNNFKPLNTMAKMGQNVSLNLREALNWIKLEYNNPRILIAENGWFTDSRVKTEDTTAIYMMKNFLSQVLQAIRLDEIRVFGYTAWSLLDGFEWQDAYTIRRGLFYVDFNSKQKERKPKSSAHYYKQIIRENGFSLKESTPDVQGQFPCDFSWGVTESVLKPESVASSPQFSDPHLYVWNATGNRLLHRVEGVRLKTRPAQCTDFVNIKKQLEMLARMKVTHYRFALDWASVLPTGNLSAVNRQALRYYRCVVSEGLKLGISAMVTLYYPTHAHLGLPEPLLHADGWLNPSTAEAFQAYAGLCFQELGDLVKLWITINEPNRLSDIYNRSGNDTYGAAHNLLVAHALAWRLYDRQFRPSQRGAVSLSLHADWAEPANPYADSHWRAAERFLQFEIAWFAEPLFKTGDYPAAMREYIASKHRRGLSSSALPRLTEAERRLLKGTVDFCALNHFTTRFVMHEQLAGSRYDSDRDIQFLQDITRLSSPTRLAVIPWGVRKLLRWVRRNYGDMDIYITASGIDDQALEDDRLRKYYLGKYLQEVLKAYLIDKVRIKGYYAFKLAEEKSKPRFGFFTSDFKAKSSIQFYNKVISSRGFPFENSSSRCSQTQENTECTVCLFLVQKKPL
Briefly: SPR (Biacore T200), antibody captured on Protein A chip, hKLB as analyte, 1:1 model. The text has this: A Protein A biosensor chip (Cat. # 29127556, GE) was allowed to affinity capture an antibody, and then a certain concentration of hKLB (R&D, Cat. # 5889-KB) was allowed to flow through the surface of the chip. The reaction signals were detected in real time using a Biacore T200 instrument to obtain an association and dissociation curve. After dissociation was complete in each experiment cycle, the biosensor chip was washed with Glycine1.5 (Cat. # BR-1003-54, GE) for regeneration. The data were fitted using a 1:1 model to obtain antibody affinity data, and the specific experimental results are shown in Table 10 below.
(In SPR one partner is held on a chip, and binding of the other changes the refractive index at the surface.)

Assay [4] deals with T1, hKLB (R&D, Cat. # 5889-KB). Put plainly: BLI (Octet HTX) competition; KLB+antibody premix on SA sensor; competitor: immobilised Bio-FGF21. Here is the method:
Bio-FGF21/Bio-FGF19 (obtained by subjecting FGF21 and FGF19 to Biotin labeling with a Biotin Labeling Kit-NH2 (available from DOJINDO Molecular technologies Inc., LK03), wherein FGF21 is set forth in SEQ ID NO: 76 and FGF19 is set forth in SEQ ID NO: 77) was immobilized to an SA sensor (incubation for 80 s) at a concentration of 2 μg/mL, and the sensor was then transferred to a sample well containing KLB (R&D, 5889-KB-1 mg) or containing KLB+antibody premix (pre-incubation for at least 15 min) for 180 s of binding. The reaction signals were detected in real time using the ForteBio OCTET HTX instrument to obtain a binding curve.
(In general: In BLI a coated tip is dipped into the sample, and binding shifts an interference pattern.)

human KLB & human FGFR4 on L6 cells, sequence (Q86Z14 whole entry, chain 1 of 2): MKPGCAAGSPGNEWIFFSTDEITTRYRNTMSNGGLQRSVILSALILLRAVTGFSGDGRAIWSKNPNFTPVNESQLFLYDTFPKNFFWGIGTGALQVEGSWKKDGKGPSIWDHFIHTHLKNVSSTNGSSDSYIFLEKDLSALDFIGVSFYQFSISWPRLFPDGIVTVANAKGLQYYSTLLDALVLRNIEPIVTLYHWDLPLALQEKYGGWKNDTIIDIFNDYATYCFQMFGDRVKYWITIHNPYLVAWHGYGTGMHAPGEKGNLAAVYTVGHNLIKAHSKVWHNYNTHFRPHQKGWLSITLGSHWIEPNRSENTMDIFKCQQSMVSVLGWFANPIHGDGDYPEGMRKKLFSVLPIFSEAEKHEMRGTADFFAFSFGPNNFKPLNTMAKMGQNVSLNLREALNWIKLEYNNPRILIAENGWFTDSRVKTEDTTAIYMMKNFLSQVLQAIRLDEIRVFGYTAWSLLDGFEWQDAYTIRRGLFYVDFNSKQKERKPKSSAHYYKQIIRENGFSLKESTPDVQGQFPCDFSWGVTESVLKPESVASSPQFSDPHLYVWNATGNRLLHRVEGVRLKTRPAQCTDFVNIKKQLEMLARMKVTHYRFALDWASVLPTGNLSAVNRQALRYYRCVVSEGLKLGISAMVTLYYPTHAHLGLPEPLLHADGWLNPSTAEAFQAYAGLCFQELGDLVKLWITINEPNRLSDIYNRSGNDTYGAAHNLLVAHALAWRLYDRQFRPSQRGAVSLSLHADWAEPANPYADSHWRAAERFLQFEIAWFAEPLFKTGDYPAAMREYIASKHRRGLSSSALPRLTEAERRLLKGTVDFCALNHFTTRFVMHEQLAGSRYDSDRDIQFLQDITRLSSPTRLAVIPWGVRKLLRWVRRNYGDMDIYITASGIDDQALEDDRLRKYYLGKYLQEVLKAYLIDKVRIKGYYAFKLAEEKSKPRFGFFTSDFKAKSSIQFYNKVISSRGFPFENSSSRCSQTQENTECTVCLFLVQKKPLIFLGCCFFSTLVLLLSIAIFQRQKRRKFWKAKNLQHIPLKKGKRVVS
human KLB & human FGFR4 on L6 cells, sequence (P22455 22-802, chain 2 of 2): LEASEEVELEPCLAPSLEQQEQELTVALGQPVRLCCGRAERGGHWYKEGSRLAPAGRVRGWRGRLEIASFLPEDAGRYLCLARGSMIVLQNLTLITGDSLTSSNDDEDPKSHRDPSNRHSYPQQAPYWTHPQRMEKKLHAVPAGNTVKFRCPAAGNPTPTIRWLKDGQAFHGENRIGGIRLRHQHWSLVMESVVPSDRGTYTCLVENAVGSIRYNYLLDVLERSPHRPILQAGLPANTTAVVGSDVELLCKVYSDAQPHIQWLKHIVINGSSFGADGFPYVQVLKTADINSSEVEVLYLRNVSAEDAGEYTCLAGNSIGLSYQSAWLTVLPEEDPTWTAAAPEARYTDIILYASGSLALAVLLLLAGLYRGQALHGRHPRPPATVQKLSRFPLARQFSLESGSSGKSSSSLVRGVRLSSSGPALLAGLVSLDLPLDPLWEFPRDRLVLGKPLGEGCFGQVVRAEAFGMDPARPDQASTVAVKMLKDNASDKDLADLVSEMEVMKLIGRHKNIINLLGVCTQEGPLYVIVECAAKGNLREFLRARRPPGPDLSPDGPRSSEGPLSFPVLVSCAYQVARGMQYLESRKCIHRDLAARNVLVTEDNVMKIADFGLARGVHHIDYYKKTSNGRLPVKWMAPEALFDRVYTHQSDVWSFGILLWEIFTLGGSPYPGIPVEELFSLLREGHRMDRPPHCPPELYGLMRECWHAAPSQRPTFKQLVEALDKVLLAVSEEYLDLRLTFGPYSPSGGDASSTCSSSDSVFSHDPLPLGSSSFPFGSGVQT
human KLB & human FGFR3c on L6 cells, sequence (Q86Z14 whole entry, chain 1 of 2): as the sequence (Q86Z14 whole entry, chain 1 of 2) above
human KLB & human FGFR3c on L6 cells, sequence (P22607 23-806, chain 2 of 2): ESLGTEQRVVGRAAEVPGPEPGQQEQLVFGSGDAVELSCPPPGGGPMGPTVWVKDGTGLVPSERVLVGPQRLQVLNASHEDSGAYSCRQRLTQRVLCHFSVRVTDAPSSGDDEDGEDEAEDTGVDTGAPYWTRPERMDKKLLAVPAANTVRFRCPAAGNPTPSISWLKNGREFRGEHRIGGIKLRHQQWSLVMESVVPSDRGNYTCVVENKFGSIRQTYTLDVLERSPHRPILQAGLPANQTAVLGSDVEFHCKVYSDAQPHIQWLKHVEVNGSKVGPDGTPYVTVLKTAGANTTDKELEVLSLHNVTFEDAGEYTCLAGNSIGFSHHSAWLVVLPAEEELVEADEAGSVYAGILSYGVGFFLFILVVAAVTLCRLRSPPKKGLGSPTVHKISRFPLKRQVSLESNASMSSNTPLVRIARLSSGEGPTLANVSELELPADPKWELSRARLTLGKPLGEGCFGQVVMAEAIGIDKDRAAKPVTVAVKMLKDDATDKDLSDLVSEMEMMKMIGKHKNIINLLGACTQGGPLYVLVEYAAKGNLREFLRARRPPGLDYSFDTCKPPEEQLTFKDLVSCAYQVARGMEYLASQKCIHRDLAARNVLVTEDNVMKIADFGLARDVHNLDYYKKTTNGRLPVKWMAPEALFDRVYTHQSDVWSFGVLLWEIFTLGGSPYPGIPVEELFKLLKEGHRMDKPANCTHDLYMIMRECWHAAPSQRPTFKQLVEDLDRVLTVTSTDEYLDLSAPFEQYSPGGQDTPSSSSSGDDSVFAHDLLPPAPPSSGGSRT

B1: hAb99-13 (antibody, human IgG1, kappa, L234A L235A, V domains shown)
VH: EVQLVQSGAEVKKPGASVKVSCKASGYTFTNYGINWVRQAPGQRLEWMGYIYIGNVDIEYNAKFKGRVTITSDTSASTAYMELSSLRSEDTAVYYCARGRGLGHFDVWGQGTTVTVSS
VL: DIQMTQSPSSLSASVGDRVTITCRASKSISKFLAWFQQKPGKTNKLLIYSGSTLQSGVPSRFSGSGSGTDFTLTISSLQPEDFATYYCQQHNEYPWTFGGGTKVEIKR
notes: human IgG1 (L234A, L235A) / kappa
For B1, the “Activation fold, pERK/total ERK in L6-hKLB&hFGFR4 cells” value in assay [1] worked out at 1.54 fold. The “Activation fold, pERK/total ERK in L6-hKLB&hFGFR3c cells” value in assay [2] was 4.95 fold. In addition, in assay [3], binding was characterised by a dissociation constant (Kd) of 2.1 nM; the koff (as a rule, the first-order rate constant of dissociation) is 0.000626 s⁻¹; the kon (usually the rate constant with which the complex forms) amounted to 298000 M⁻¹ s⁻¹. Further, in assay [4], the “binding signal of KLB to Bio-FGF21, % of KLB alone” value (shortened to “binding signal … % of KLB alone”) came out at 108%.

B2: hAb18-8 (antibody, human IgG1, kappa, L234A L235A, V domains shown)
VH: EVQLVQSGAEVKKPGASVKVSCKASGYTFTDYAMHWVRQAPGQRLEWMGVISTYSGTTNYNQNFKGRVTITVDKSASTAYMELSSLRSEDTAVYYCARSGPLDYWGQGTTVTVSS
VL: ENVLTQSPDFQSVTPKEKVTITCRATSSVSSSYLHWYQQKPDQSPKLWIYSTSQLASGVPSRFSGSGSGTDYTLTINSLEAEDAATYYCQQYSGYPLTFGQGTKLEIKR
notes: as for B1
For B2, in assay [1], the “Activation fold, pERK/total ERK in L6-hKLB&hFGFR4 cells” value stood at 0.98 fold. For the same molecule, the “Activation fold, pERK/total ERK in L6-hKLB&hFGFR3c cells” value in assay [2] was found to be 1.41 fold. Further, in assay [3], binding was characterised by a dissociation constant (Kd) of 0.977 nM, the koff was 0.000103 s⁻¹ and the kon was 106000 M⁻¹ s⁻¹. Moreover, the “binding signal … % of KLB alone” value in assay [4] came to 108%.

B3: hAb-23 (antibody, human IgG1, kappa, L234A L235A, V domains shown)
VH: QVQLVQSGAEVKKPGSSVKVSCKASGGTFSSYAISWVRQAPGQGLEWMGGIIPIFGTANYAQKFQGRVTITADESTSTAYMELSSLRSEDTAVYYCARELVSYYYGMDVWGQGTMVTVSS
VL: not shown
notes: from a human natural phage library; human IgG1 (L234A, L235A) / kappa; also called fully human antibody hAb-23
Consider B3, for which the “Activation fold, pERK/total ERK in L6-hKLB&hFGFR4 cells” value in assay [1] turned out to be 0.91 fold. The “Activation fold, pERK/total ERK in L6-hKLB&hFGFR3c cells” value in assay [2] was 1.08 fold. In addition, in assay [3], the affinity, expressed as Kd, was 0.199 nM; the koff was determined as 4.91e-05 s⁻¹; the kon was determined as 247000 M⁻¹ s⁻¹. In addition, in assay [4], the “binding signal … % of KLB alone” value came to 113%.

For the origin of these results see patent US20240270874A1 (JIANGSU HENGRUI PHARMACEUTICALS, published 2024).
